Patent publication US9175077B2, “Nucleic acids encoding biologically active polypeptides derived from a novel early stage pregnancy factor designated maternin (MA)” (NOBEL BIOSCIENCES LLC, priority 1999, dated 2015)
Where two headings read alike, the source gives them in different places.

Assays:
human tumor cells = assay type: cell-based; conditions: controls at equimolar or 5 to 10× greater concentrations
Method: The anti-tumor activities of MA were assessed in several in vitro and in vivo systems using published methods.^166 In vitro studies were with a wide variety of human tumor cell lines as well as short-term cultures of cells from biopsy samples obtained from tumors. The assays included effects of MA on colony formation, cell number and viability (trypan blue), and apoptosis. Four measures of microscopy were used. In vivo studies included the effects of MA on tumors induced in immunodeficient mice by xenotransplanted various human neoplastic cells, spontaneous neoplasms of immuno-competent mice and rats, and a few standard tumors in immuno-competent mice. Representative examples are presented.
Cells (5×10^5/ml) were seeded in modified Eagle's medium supplemented with 10% FCS, 10% conditioned medium form PHA stimulated human lymphocytes, 2 mM glutamine in 0.8% V/V methylcellulose with or without various treatments in a final volume of 1.0 ml. Then 0.1 ml aliquots were seeded in 96 well flat bottom microtest plates and incubated at 37° C. in 5% CO2 in air for 7 days. Aggregates containing 50 cells or more were scored as colonies.
5×10^5 cells were seeded in triplicate on 24 gelatin coated wells in conditions as described for Panel A and treated with the indicated test materials. After 3 days the cells were dislodged from their monolayers by gentle pipetting with cell dissociation buffer (Life Technologies), counted after trypan blue staining and aliquots examined for Annexin V staining by indirect IFA […].
Studies of the anti-tumor cell effects of MA were extended to other carcinomas, melanoma, some hematopoietic tumors, and carcinomas of the colon, prostate, breast, lung, brain, pancreas, and kidney-using cell lines from these tumors. […] Many more types of tumor cells were studied utilizing other assays (see below).

[1] = Summary of active and inactive peptides / overall biological activities
HIV = conditions: higher doses increased viral production; cited from earlier work
HIV-1 gene expression = assay: HIV-1 transgenic mice, pups feeding from treated mothers; assay type: in vivo; conditions: mouse, in vivo
From the text: The transgenic mice contain 5.1 kb of the HIV-1 proviral genome, lacking gag and pol genes and 2.3 kb of vector.^172 The newly developed transgenic rat contains the same HIV-1 sequences and vector.
Twenty-four hours after birth the mothers were either inoculated subcutaneously daily for 10 days or received an implanted osmotic pump delivering 30-150 pmoles of either native or synthetic MA or pMA. Various control polypeptides were used at equimolar or vast molar excess. The newborn pups were then allowed to feed from the foster mother breast milk over the entire period. Since the animals are at risk from needle inoculation, breastfeeding was the chosen route for MA administration.
In these experiments total RNA was extracted from samples of skin RNA206 10 days after birth of MA treated and untreated mice. One ug of RNA was reverse transcribed into cDNA using random hexamer primer and […] reverse transcriptase (Life Technologies, Inc.) in a final vol. Of 30 ul. Three ul of each reaction was used for PCR amplification of the HIV-1 gene sequences (env, tat, nef, and rev) as described […], and glyceraldehyde 3-phosphate dehydrogenase (GAPDH) was amplified from each sample for normalization. After 25 cycles, 10% of the products were resolved by electrophoresis on 2% agarose gels, transferred to nitrocellulose membranes by Southern blotting, and hybridized to fluorescein isthiocyanate-labeled oligonucleotide probes complementary to internal sequences of the amplicons […]. Bound probes were detected by chemiluminescence (Amersham) and relative mRNA levels determined by densitrometry after normalization with GAPDH mRNA levels.

[2] = Lethal dose taxol in Sprague-Dawley rats; assay type: in vivo; conditions: even at high doses
Method: Sprague-Dawley rats were given taxol in large lethal doses, 4.5 mg in one I.P. inoculation. […] Bone marrow suppression can also be a side effect of the clinical use of taxol.^179 As in the radiation experiments, either MA, pMA, MAS1, or various polypeptide controls were given subcutaneously only in two doses 24 and 48 hrs before taxol treatment or were given 3×/week for 4 weeks. […]

[3] = tested on: human carcinoma and sarcoma cells (PC3, KS Y-1); assay: Xenotransplanted human tumors in immunodeficient mice; assay type: in vivo; conditions: controls at equivalent and higher molar concentrations
Method: In the first set of experiments, MA was tested against tumors formed by xenotransplantation of various human carcinoma and sarcoma cells in immunodeficient mice. […] […] Three different synthetic forms of MA were used: full length (MAS3) and the previously described MAS1 and MAS2 (Panel C).

hCG receptor = target: T1, hCG receptor (Homo sapiens, UniProt P22888); conditions: cited from earlier work
T1 construct: host or cells: unspecified cells

[4] = tested on: hematopoietic progenitors (CFU-GEMM, BFU-e, CFU-GM, T-CFC); assay: Hematopoietic colony formation assays; assay type: cell-based, human
From the text: Hematopoietic colony formation assays with bone marrow or cord blood of normal human volunteers and bone marrow of monkeys, rats, and mice were utilized. The assays are conventional measurements of the number of progenitors for erythrocytes, granulocytes, macrophages, platelets, and T-cells. The culture conditions included growth factors that would give near optimum growth for the particular lineage. These factors included II-3, PHA-lymphocyte conditioned medium, erythropoietin (EPO), II-6, and GM-CSF. The number of colonies developing in methylcellulose reflects the number of progenitor cells, and the percent increase is a measure of the effect of different polypeptides to increase colony number above the maximum obtained with the indicated known growth factors.
The latter is a less conventional assay, and details on the methods involved are described elsewhere.^178

HIV-1 = conditions: controls at similar, equimolar or higher concentrations
Method: Virus (MOI of 0.001) was added to 10^6 cells in RPMI-1640 with 10% FCS. One hour later the various polypeptides were added once. The cells cultured for 3 days with 5 ug PHA and 20 i.m. of II-2/ml at 37°, after which virus was estimated by determining p24 (HIV-1) or p27 (SIV) (Organon-Teknika).
The effect of native and synthetic MA on HIV-1 infection in vitro was evaluated using PHA and II-2 stimulated primary peripheral blood cells (PBMC), CD4+ T-cells enriched fractions from PBMC, and CD14+ macrophage enriched fractions. Infection was with HIV-1 IIIB (PBMC and CD4+ T-cells), HIV-1 Ba-L (macrophages), and two primary HIV-1 isolates not passaged in any cell line (PBMC).

T1 sequence (P22888 27-699): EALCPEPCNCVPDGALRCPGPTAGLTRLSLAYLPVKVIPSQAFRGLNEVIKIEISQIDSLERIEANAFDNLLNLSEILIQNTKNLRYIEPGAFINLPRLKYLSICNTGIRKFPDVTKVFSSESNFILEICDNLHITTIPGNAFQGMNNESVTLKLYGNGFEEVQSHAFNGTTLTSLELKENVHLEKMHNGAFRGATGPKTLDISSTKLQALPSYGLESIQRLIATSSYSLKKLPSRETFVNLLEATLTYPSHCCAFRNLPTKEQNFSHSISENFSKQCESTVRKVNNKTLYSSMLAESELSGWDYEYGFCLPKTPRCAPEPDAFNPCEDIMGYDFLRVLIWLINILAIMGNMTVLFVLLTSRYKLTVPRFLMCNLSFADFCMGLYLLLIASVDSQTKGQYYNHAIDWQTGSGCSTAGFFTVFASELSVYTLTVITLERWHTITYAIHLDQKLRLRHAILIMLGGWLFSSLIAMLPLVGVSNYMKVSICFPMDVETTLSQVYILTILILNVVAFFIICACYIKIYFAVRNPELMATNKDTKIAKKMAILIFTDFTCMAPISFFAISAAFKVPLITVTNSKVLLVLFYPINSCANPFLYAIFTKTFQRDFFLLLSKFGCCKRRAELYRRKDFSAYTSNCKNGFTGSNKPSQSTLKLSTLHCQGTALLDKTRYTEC

B1: β-hCG: β-chain of human chorionic gonadotropin, AA 1-145 (SEQ ID NO: 1) (protein, listed as Homo sapiens)
chain: SKEPLRPRCRPINATLAVEKEGCPVCITVNTTICAGYCPTMTRVLQGVLPALPQVVCNYRDVRFESIRLPGCPRGVNPVVSYAVALSCQCALCRRSTTDCGGPKDHPLTCDDPRFQDSSSSKAPPPSLPSPSRLPGPSDTPILPQ
In the case of B1, the “inhibition of growth / induction of apoptosis of neoplastic cells” value (human tumor cells) is listed as “no inhibition of growth or induction of apoptosis”, the “biological activities in vitro or in vivo in the experimental systems described” value [1] is listed as “no activity” and the “doses reducing HIV production in monocytes” value (HIV) is listed as ≤ 10 µg/mL. The “HIV-1 viral expression in tissues” value (HIV-1 gene expression) was “high expression”, the “mice dead by day 10” value (HIV-1 gene expression) was 10 of 10 and the “effect on survival (qualitative)” value [2] was “no effect”. For the same molecule, the “effect on xenotransplanted tumor (qualitative)” value [3] was “no effect”, the “binding to the hCG receptor” value (hCG receptor) was “neither β-hCG or any of its degradation products significantly bind” and the “hematopoietic effects in vivo and in vitro” value [4] was “None”. For the same molecule, the “effect on colony number (qualitative)” value ([4]; equimolar or higher concentrations) was “no significant effect above background”, the “inhibition of HIV replication (qualitative)” value (HIV-1) was “No inhibition” and the “inhibition of HIV replication (qualitative)” value (HIV-1; listed as rβ-hCG) was “no effect”.
